Laboratory results as given in US20250297232A1, “BACTERIAL MYELOPEROXIDASE-CATALASE AND APPLICATIONS THEREOF” (priority 2022, published 2025).

What was measured:
E. coli ATCC 25922 = assay: Microbicidal activity: counting colonies on Petri dishes; assay type: cell-based; conditions: 1 h contact with 1.10^6 CFU/mL, 25 mM SCN^−, pH7.4; enzyme alone: wt RbMPO 300 nM or GOxaspniger 25 nM
Procedure: 10 mL of TSB medium (pH7.4) was inoculated with a freshly obtained colony of E. coli ATCC 25922, and the culture was incubated at 37° C. and 190 rpm overnight. In the morning, 25 mL of TSB medium were inoculated with the previous day's pre-culture to obtain an OD620 nm of 0.07 at TO. When the bacterial culture reached the exponential phase, the bacterial solution was diluted 10-fold in TSB in order to reach 1.10^6 CFU/mL. This dilution was then contacted with the enzyme solution for 1 hour (in a final volume of 1 mL). Further dilutions were then made (10^−1, 10^−4, 10−5, 10^−6). 100 μL of these solutions were spread on a Petri dish containing TSB agar medium and placed at 37° C. overnight. The next day, the surviving colonies were counted and the number of CFU/mL was calculated using the formula below: […]

[1] = Heme reconstitution of apo wt and mutated RbMPOs (tryptophan fluorescence quenching); assay type: binding; conditions: heme reconstitution of apo enzyme; 1 μM enzyme, 50 mM sodium phosphate pH7.5, 25° C.
Procedure: Sample dilutions were performed in a 50 mM pH7.5 sodium phosphate buffer.

[2] = Pre-steady state: return of wt RbMPO to its native state, Cl^− range; assay type: biochemical; conditions: H2O2: 20 μM
Procedure: (§1) Kinetic parameters under pre-steady-state condition were performed with a Biologic SFM400 stopped-flow at 412 nm, 37° C. and with 50 mM sodium phosphate buffer at pH7.5. […] An exponential linear fit was applied to each kinetic using the following formula: […]
(§2) The return of the enzyme to its native state was studied by the impact of increasing concentrations of (pseudo)-halides substrates on compound I (FIG. 9B). […] It is the time difference (s) between the two characteristic steps that allowed the calculation of the values of the Vreturn(μM^−1.s^−1) values: […]

[3] = Steady-state kinetics by stopped-flow, NaSCN (hypothiocyanate formation, 240 nm); assay type: biochemical; conditions: for kss: SCN^− 5 mM, 267 nM RbMPO, H2O2 79 μM
Procedure: (§3) pH- and temperature-dependent studies were carried out for each substrate.
(§4) These temperatures were reached by using a stopped-flow coupled to a cryostat.
(§5) For temperature and pH measurements, RbMPO was set at the same concentration as in the determination of steady state kinetics parameters.

[4] = Steady-state kinetics by stopped-flow, NaBr (Tau-NHBr formation, 289 nm); assay type: biochemical; conditions: Br^− 500 mM, 267 nM RbMPO, H2O2 79 μM
Procedure: as §3, §4, §5

[5] = Stability of myeloperoxidase activity of wt RbMPO on storage in different buffers; assay type: physicochemical; conditions: stored in PBS buffer pH 6.6 at 37° C., up to 60 minutes
Procedure: The enzyme was concentrated at […] for the 4° C. storage condition and at 132.2 μM for the 37° C. storage condition. The MPO activity of the enzyme was assessed at different time points by a standard activity test.
The MPO activity of the enzyme was assessed at different time points by a standard activity test. To do so, the concentrated enzyme was diluted and contacted with H2O2, NaCl and APF.
The value obtained at TO is defined as 100% of the enzymatic (MPO) activity at the temperature tested and all the other activities are calculated from this TO timepoint.

[6] = Pre-steady state: return of wt RbMPO to its native state, Br^− range; assay type: biochemical; conditions: H2O2: 20 μM
Procedure: as §1, §2

[7] = Steady-state kinetics by stopped-flow, H2O2 range at fixed (pseudo)-halogen ions; assay type: biochemical; conditions: wt RbMPO 267 nM
Procedure: For the halides Cl^− and Br^−, the ranges were not performed at halide saturation but at 500 and 100 mM respectively (data not shown).

[8] = tested on: E. coli strain ATCC 25922; assay: Microbicidal activity: bacterial growth kinetics in a microplate (A620nm, 16 h); assay type: cell-based; conditions: for inhibition of bacterial growth: glucose 14 mM, pH 7.4, 37° C.
Procedure: The microbicidal activity of RbMPO towards the E. coli strain ATCC 25922 was evaluated by two independent experiments.
E. coli 25922 were grown on TSB-agar for 16 h at 37° C. One colony is grown in 10 ml of TSB medium under stirring at 190 rpm at 37° C. The optical density (OD) of the bacterial preculture was measured at 620 nm in a spectrophotometer (Ultrospec 10, Biochrom). 25 ml of TSB medium was inoculated to obtain an OD of approximately 0.09. When the OD was between 1 and 2, a dilution in 10 mL of TSB medium was performed to obtain 2×10^6 CFU/ml. Bactericidal tests were performed in 96-well microplates under a final volume of 100 μl with 10^6 CFU/ml. The plate cover was treated with 0.05% TritonX−100 and 20% ethanol to prevent condensation and thus avoid misreading of the wells by the instrument. The solution was allowed to act on the lid for 10 minutes, then removed and dried under a class II biological safety cabinet. Each tested condition was performed at least in triplicate and each experiment was repeated at least 3 times. The kinetics was set to 16 h with a measurement at 620 nm every 15 minutes in a microplate reader (Wallac Victor 2,1420 Multilabel counter) thermostated at 37° C. [shaking duration: 10.0s; shaking speed: fast; shaking diameter: 0.5 mm; shaking type: orbital; measurement time: 0.2s; numbers of replicates: 60; time between replicates: 900 s; label: P620]. […] 5 mM bleach was used as a positive control and bacteria alone was used as a negative control. • By counting colonies on Petri dishes

[9] = Steady-state kinetics by stopped-flow, NaCl (Tau-NHCl formation, 253 nm); assay type: biochemical; conditions: NaCl range (k2), 300 nM of enzyme and 79 μM of H2O2
Procedure: as §3, §4, §5

B1: wt RbMPO: novel bacterial heme peroxidase (myeloperoxidase-catalase) of about 78 KDa from Rhodopirellula baltica, SEQ ID NO: 1, produced recombinantly in E. coli (protein, listed as Rhodopirellula baltica)
chain: MLFWSKRTRKHPGRKRRRLRSEQLESRQLLAADFGGYRHNIYDAEDVNDDGRVSAIDALLVINAMTSETSRDENVFTDVNGDGRRSALDALRVINRIERGDVFPIDTSGDEDLNTLLPEMPSEVRSIDGSGNNPNDHLWGSVGQRLIRMAPAAYGDGISTLAGANRPSAREVSNVLSAMNTSQVLNDRGLSAFVYVWGQFIDHDLGLTESDEHGEAIDISVPEGDLWFDPMGSGEAVIPMTRTPIADGTGTSVGNPAQQFNQITAFIDGSMVYGSDAATAERLRTFAGGRLAISDNGLLPMDESGMVIAGDVRASENVGLTAIQTLFVREHNRLADEIFAADPEATDEEIYQRARLVVASLIQSITYNEFLPALLGQRAMDSYRGYDASVNPGIANEFSTAAFRLGHSTLRDEVGFMSNDGRESKDEMELKDAFFHASMLEETGIDSLLKFDASVQAQEIDLAVVDSLRNFLFGPPGAGGLDLVAMNIQRGRDHGLSDYNTTRQAYGLDRVETFDQITGDVELQQKLASLYGTVDNIDLWVGLMAEDHQHDASVGELTGLIIADQFQRTRDGDRFFYKNVLTDSEVESIERSTLADLIERNTSVDGLQENVFFMQVELRGRVILASSIPPNTMPSEVREEEIRGVSGMAIELIDASGKLVDSTVSDQHGNYRFRALSETGDYQVRLSESGEAMDVLVAHGAERIRGLDFIVLA
surviving bacteria (E. coli ATCC 25922): 13,850,000±4,454,773 CFU/mL | k2 [1]: 1430 ± 74.4 M⁻¹ s⁻¹ | kreturn/K1/2 [2]: 5169 ± 4872 M⁻¹ s⁻¹ | kss ([3]; 37° C., pH 4): 0.7 ± 0.04 s⁻¹ | kss ([3]; 37° C., pH 5): 5.4 ± 0.02 s⁻¹ | kss ([3]; 37° C., pH 6): 27.0 ± 0.06 s⁻¹ | kss ([3]; 37° C., pH 7): 42.8 ± 0.13 s⁻¹ | kss ([3]; 37° C., pH 8): 20.4 ± 0.03 s⁻¹ | kss ([3]; 37° C., pH 9): 3.1 ± 0.02 s⁻¹ | kss ([3]; 37° C., pH 10): 0 ± 0 s⁻¹ | kss ([3]; pH 7.5, 10° C.): 5.0 ± 0.01 s⁻¹ | kss ([3]; pH 7.5, 20° C.): 37.6 ± 0.10 s⁻¹ | kss ([3]; pH 7.5, 30° C.): 56.3 ± 0.10 s⁻¹ | kss ([3]; pH 7.5, 37° C.): 63.2 ± 0.11 s⁻¹ | kss ([3]; pH 7.5, 40° C.): 55.5 ± 0.14 s⁻¹ | kss ([3]; pH 7.5, 50° C.): 56.5 ± 0.14 s⁻¹ | kss ([3]; pH 7.5, 60° C.): 67.2 ± 0.22 s⁻¹ | substrate specificity ([3]; from steady-state NaSCN, NaBr and NaCl ranges): SCN^−>Br^−>Cl^− | kss ([4]; 37° C., pH 4): 0 ± 0 s⁻¹ | kss ([4]; 37° C., pH 5): 1.5 ± 0.004 s⁻¹ | kss ([4]; 37° C., pH 6): 14.5 ± 0.03 s⁻¹ | kss ([4]; 37° C., pH 7): 11.0 ± 0.02 s⁻¹ | kss ([4]; 37° C., pH 8): 4.8 ± 0.01 s⁻¹ | kss ([4]; 37° C., pH 9): 1.3 ± 0.004 s⁻¹ | kss ([4]; 37° C., pH 10): 0.8 ± 0.007 s⁻¹ | kss ([4]; pH 7.5, 10° C.): 9.5 ± 0.01 s⁻¹ | kss ([4]; pH 7.5, 20° C.): 23.4 ± 0.02 s⁻¹ | kss ([4]; pH 7.5, 30° C.): 24.8 ± 0.02 s⁻¹ | kss ([4]; pH 7.5, 37° C.): 19.5 ± 0.01 s⁻¹ | kss ([4]; pH 7.5, 40° C.): 29.1 ± 0.02 s⁻¹ | kss ([4]; pH 7.5, 50° C.): 21.1 ± 0.01 s⁻¹ | kss ([4]; pH 7.5, 60° C.): 37.8 ± 0.03 s⁻¹ | fall of myeloperoxidase activity [5]: 50% | kreturn/K1/2 [6]: 607.77 ± 161.51 M⁻¹ s⁻¹ | KMapp ([7]; Br (100 mM)): 0.23 ± 0.21 mM | KMapp ([7]; SCN (5 mM)): 0.12 ± 0.04 mM | excess of wt RbMPO over GOxaspniger required for 100% bactericidal effect ([8]; 10 nM GOxaspniger, 25 mM SCN^−, pH 7.4): at least 15 times | inhibition of bacterial growth ([8]; 150 nM wt RbMPO and 10 nM GOxaspniger (15:1 ratio), 25 mM SCN^−): 100% | inhibition of bacterial growth ([8]; 300 nM wt RbMPO and 25 nM GOxaspniger (12:1 ratio), 25 mM SCN^−): 100% | inhibition of bacterial growth ([8]; 300 nM wt RbMPO and 30 nM GOxaspniger (10:1 ratio), 25 mM SCN^−): 100% | bactericidal effect ([8]; 25 mM SCN (pH 7.4), between 10 and 30 nM GOxaspniger, from 300 nM wt RbMPO): 100% | kss/[Cl^−] [9]: 5.46 ± 0.67 M⁻¹ s⁻¹
